From US20210032312A1 (Janssen / Centocor, published 2021) come the findings set out here.

The experiment addresses T1, human CD8A-Fc (recombinant human CD8 alpha fused to Fc fragment of human IgG1) (human, UniProt P01732 22-182, limits assumed).
T1 construct: SPR ligand, captured by goat anti-human Fc; also called hCD8A-Fc; recombinant CD8 alpha; not shown: linker with flag (and polyhistidine) tag and Fc fragment of human IgG1; depends on which of the two constructs was used
Description: SPR, dissociation rate on recombinant CD8 alpha.

T1 sequence (P01732 22-182 limits assumed): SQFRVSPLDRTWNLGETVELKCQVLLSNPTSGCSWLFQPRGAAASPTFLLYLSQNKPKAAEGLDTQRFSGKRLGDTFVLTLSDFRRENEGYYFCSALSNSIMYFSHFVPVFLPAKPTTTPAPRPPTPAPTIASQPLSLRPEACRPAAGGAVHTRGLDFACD

B1: CD8S399 (designed binder)
chain: LPAPKNLVVSRVTEDSARLSWTAPDAAFDSFWITYPEYPDPGGEAIVLTVPGSERSYDLTGLKPGTEYFVVIYGVKGGEIYSPLSAIFTT
notes: W38Y mutant of P282DR9P1359_C5; the entry holds the mutation
Turning to B1, the koff came to 0.00134 s⁻¹.

B2: CD8S402 (designed binder)
chain: LPAPKNLVVSRVTEDSARLSWTAPDAAFDSFWITYPEWPPPGGEAIVLTVPGSERSYDLTGLKPGTEYFVVIYGVKGGEIYSPLSAIFTT
notes: D40P mutant of P282DR9P1359_C5; the entry holds the mutation
Consider B2, for which the koff is 4.84e-05 s⁻¹.

B3: CD8S401 (designed binder)
chain: LPAPKNLVVSRVTEDSARLSWTAPDAAFDSFWITYPEIPDPGGEAIVLTVPGSERSYDLTGLKPGTEYFVVIYGVKGGEIYSPLSAIFTT
notes: W38I mutant of P282DR9P1359_C5; the entry holds the mutation
On to B3, for which the koff was found to be 0.0127 s⁻¹.

B4: CD8S400 (designed binder)
chain: LPAPKNLVVSRVTEDSARLSWTAPDAAFDSFWITYPELPDPGGEAIVLTVPGSERSYDLTGLKPGTEYFVVIYGVKGGEIYSPLSAIFTT
notes: W38L mutant of P282DR9P1359_C5; the entry holds the mutation
With B4, the koff was 0.0226 s⁻¹.

B5: CD8S404 (designed binder)
chain: LPAPKNLVVSRVTEDSARLSWTAPDAAFDSFWITYAEWPDPGGEAIVLTVPGSERSYDLTGLKPGTEYFVVIYGVKGGEIYSPLSAIFTT
notes: P36A mutant of P282DR9P1359_C5; the entry holds the mutation
As to B5, the koff came out at 0.0309 s⁻¹.

B6: CD8S371 (designed binder)
chain: LPAPKNLVVSRVTEDSARLSWTAPDAAFDSFQIAYPEYPPPGEAIVLTVPGSERSYDLTGLKPGTEYFVIIQGVKGGVESWPLSAIFTT
notes: Printed as W48Y mutant of P282DR9P1359_F5; the entry holds the mutation
For the molecule B6, the koff was found to be 0.000194 s⁻¹.

B7: CD8S394 (designed binder)
chain: LPAPKNLVVSRVTEDSARLSWTAPDAAFDSFAIAYPEIPPQGEAIVLTVPGSERSYDLTGLKPGTEYFVVIYGVKGGSYSAPLSAIFTT
notes: W38I mutant of P282DR9P1359_F7; the entry holds the mutation
As to B7, the koff turned out to be 0.00355 s⁻¹.

B8: CD8S376 (designed binder)
chain: LPAPKNLVVSRVTEDSARLSWTAPDAAFDSFQIAYPEWPPPGEAIVLTVPGSERSYDLTGLKPGTEYFVIIQGVKGGVESSPLSAIFTT
notes: W81S mutant of P282DR9P1359_F5; the entry holds the mutation
Consider B8, for which the koff is 0.000846 s⁻¹.

B9: CD8S373 (designed binder)
chain: LPAPKNLVVSRVTEDSARLSWTAPDAAFDSFQIAYPEIPPPGEAIVLTVPGSERSYDLTGLKPGTEYFVIIQGVKGGVESWPLSAIFTT
notes: Printed as W48I mutant of P282DR9P1359_F5; the entry holds the mutation
As to B9, the koff worked out at 0.00403 s⁻¹.

B10: CD8S395 (designed binder)
chain: LPAPKNLVVSRVTEDSARLSWTAPDAAFDSFAIAYPEHPPQGEAIVLTVPGSERSYDLTGLKPGTEYFVVIYGVKGGSYSAPLSAIFTT
notes: W38H mutant of P282DR9P1359_F7; the entry holds the mutation
Consider B10, for which the koff is 0.00189 s⁻¹.

B11: CD8S392 (designed binder)
chain: LPAPKNLVVSRVTEDSARLSWTAPDAAFDSFAIAYPEYPPQGEAIVLTVPGSERSYDLTGLKPGTEYFVVIYGVKGGSYSAPLSAIFTT
notes: W38Y mutant of P282DR9P1359_F7; the entry holds the mutation
With B11, the koff was determined as 0.00155 s⁻¹.

B12: CD8S393 (designed binder)
chain: LPAPKNLVVSRVTEDSARLSWTAPDAAFDSFAIAYPELPPQGEAIVLTVPGSERSYDLTGLKPGTEYFVVIYGVKGGSYSAPLSAIFTT
notes: W38L mutant of P282DR9P1359_F7; the entry holds the mutation
For the molecule B12, the koff worked out at 0.00255 s⁻¹.

B13: CD8S374 (designed binder)
chain: LPAPKNLVVSRVTEDSARLSWTAPDAAFDSFQIAYPEWPPPGEAIVLTVPGSERSYDLTGLKPGTEYFVIIQGVKGGVESYPLSAIFTT
notes: W81Y mutant of P282DR9P1359_F5; the entry holds the mutation
Consider B13, for which the koff came to 0.000403 s⁻¹.

B14: CD8S377 (designed binder)
chain: LPAPKNLVVSRVTEDSARLSWTAPDAAFDSFQIAYPEWPPPGEAIVLTVPGSERSYDLTGLKPGTEYFVIIQGVKGGVESEPLSAIFTT
notes: W81E mutant of P282DR9P1359_F5; the entry holds the mutation
With B14, the koff was 0.0004 s⁻¹.

B15: CD8S403 (designed binder)
chain: LPAPKNLVVSRVTEDSARLSWTAPDAAFDSFAIAYAEWPPQGEAIVLTVPGSERSYDLTGLKPGTEYFVVIYGVKGGSYSAPLSAIFTT
notes: P36A mutant of P282DR9P1359_F7; the entry holds the mutation
On to B15, for which the koff came out at 0.000133 s⁻¹.

B16: CD8S375 (designed binder)
chain: LPAPKNLVVSRVTEDSARLSWTAPDAAFDSFQIAYPEWPPPGEAIVLTVPGSERSYDLTGLKPGTEYFVIIQGVKGGVESLPLSAIFTT
notes: W81L mutant of P282DR9P1359_F5; the entry holds the mutation
With B16, the koff came to 0.00083 s⁻¹.

B17: CD8S372 (designed binder)
chain: LPAPKNLVVSRVTEDSARLSWTAPDAAFDSFQIAYPELPPPGEAIVLTVPGSERSYDLTGLKPGTEYFVIIQGVKGGVESWPLSAIFTT
notes: Printed as W48L mutant of P282DR9P1359_F5; the entry holds the mutation
Turning to B17, the koff was found to be 0.000571 s⁻¹.

B18: CD8S378 (designed binder)
chain: LPAPKNLVVSRVTEDSARLSWTAPDAAFDSFAITYIEKEHIEEGEAIVLTVPGSERSYDLTGLKPGTEYWVPIWGVKGGANSWPLSAIFTT
notes: D43E mutant of P282DR9P1359_G7; the entry holds the mutation
On to B18, for which the off-rate (koff) came out at 5.8e-05 s⁻¹.

B19: CD8S387 (designed binder)
chain: LPAPKNLVVSRVTEDSARLSWTAPDAAFDSFAITYIEKEHIEDGEAIVLTVPGSERSYDLTGLKPGTEYWVPIWGVKGGANSEPLSAIFTT
notes: W83E mutant of P282DR9P1359_G7; the entry holds the mutation
B19: the koff turned out to be 0.000125 s⁻¹.

B20: CD8S381 (designed binder)
chain: LPAPKNLVVSRVTEDSARLSWTAPDAAFDSFAITYIEKEHIEDGEAIVLTVPGSERSYDLTGLKPGTEYFVPIWGVKGGANSWPLSAIFTT
notes: W70F mutant of P282DR9P1359_G7; the entry holds the mutation
Take B20: the dissociation rate constant (koff) turned out to be 0.0002 s⁻¹.

B21: CD8S388 (designed binder)
chain: LPAPKNLVVSRVTEDSARLSWTAPDAAFDSFAITYIEKEHIEDGEAIVLTVPGSERSYDLTGLKPGTEYWVPIWGVKGGAQSWPLSAIFTT
notes: N81Q mutant of P282DR9P1359_G7; the entry holds the mutation
As for B21, the koff came out at 7.54e-05 s⁻¹.

B22: CD8S383 (designed binder)
chain: LPAPKNLVVSRVTEDSARLSWTAPDAAFDSFAITYIEKEHIEDGEAIVLTVPGSERSYDLTGLKPGTEYWVPIYGVKGGANSWPLSAIFTT
notes: W74Y mutant of P282DR9P1359_G7; the entry holds the mutation
On to B22, for which the koff came out at 0.000747 s⁻¹.

B23: CD8S380 (designed binder)
chain: LPAPKNLVVSRVTEDSARLSWTAPDAAFDSFAITYIEKEHIEDGEAIVLTVPGSERSYDLTGLKPGTEYYVPIWGVKGGANSWPLSAIFTT
notes: W70Y mutant of P282DR9P1359_G7; the entry holds the mutation
B23: the koff was determined as 0.00121 s⁻¹.

B24: CD8S382 (designed binder)
chain: LPAPKNLVVSRVTEDSARLSWTAPDAAFDSFAITYIEKEHIEDGEAIVLTVPGSERSYDLTGLKPGTEYSVPIWGVKGGANSWPLSAIFTT
notes: W70S mutant of P282DR9P1359_G7; the entry holds the mutation
Turning to B24, the koff turned out to be 0.247 s⁻¹.

B25: CD8S379 (designed binder)
chain: LPAPKNLVVSRVTEDSARLSWTAPDAAFDSFAITYIEKEHIESGEAIVLTVPGSERSYDLTGLKPGTEYWVPIWGVKGGANSWPLSAIFTT
notes: D43S mutant of P282DR9P1359_G7; the entry holds the mutation
Regarding B25, the koff came out at 4.97e-05 s⁻¹.

B26: CD8S389 (designed binder)
chain: LPAPKNLVVSRVTEDSARLSWTAPDAAFDSFGILYYEPVDSGEAITLPVPGSERSYDLTGLKPGTEYFVVITGVKGGAPSTPLGTIFTT
notes: W68F mutant of P282ER9P1360_C8; the entry holds the mutation
B26: the koff stood at 0.000184 s⁻¹.

B27: CD8S390 (designed binder)
chain: LPAPKNLVVSRVTEDSARLSWTAPDAAFDSFGILYYEPVDSGEAITLPVPGSERSYDLTGLKPGTEYYVVITGVKGGAPSTPLGTIFTT
notes: W68Y mutant of P282ER9P1360_C8; the entry holds the mutation
Regarding B27, the koff was found to be 0.000152 s⁻¹.

B28: CD8S391 (designed binder)
chain: LPAPKNLVVSRVTEDSARLSWTAPDAAFDSFGILYYEPVDSGEAITLPVPGSERSYDLTGLKPGTEYHVVITGVKGGAPSTPLGTIFTT
notes: W68H mutant of P282ER9P1360_C8; the entry holds the mutation
B28: the off-rate constant (koff) came out at 0.00032 s⁻¹.

In general, koff refers to a measure of how fast the partners let go of each other.
